Values joined by “and” are separate entries in the source; they are usually repeats but may differ in a detail not shown here. Identical values can stand only once.
Key:
[1] = target: canine FcRn (FcRn large subunit with canine beta-2-microglobulin) (canine); experiment: SPR pH 5.5, SASA-Fc captured on BSA, FcRn 200 nM
[2] = target: canine FcRn (FcRn large subunit with canine beta-2-microglobulin) (canine); experiment: SPR pH 5.5, SASA-Fc captured on BSA, FcRn 200 nM; remark: listed apart in the source
[3] = target: canine FcRn (FcRn large subunit with canine beta-2-microglobulin) (canine); experiment: SPR pH 5.5, SASA-Fc captured on BSA, FcRn 200 nM; remark: listed apart in the source
[4] = target: canine FcRn (FcRn large subunit with canine beta-2-microglobulin) (canine); experiment: SPR pH 5.5, SASA-Fc captured on BSA, FcRn 200 nM; remark: listed apart in the source
[5] = target: canine FcRn (FcRn large subunit with canine beta-2-microglobulin) (canine); experiment: SPR pH 5.5, SASA-Fc captured on BSA, FcRn 200 nM; remark: listed apart in the source
[6] = target: canine FcRn (FcRn large subunit with canine beta-2-microglobulin) (canine); experiment: SPR pH 5.5, SASA-Fc captured on BSA, FcRn 200 nM; remark: listed apart in the source
[7] = target: canine FcRn (FcRn large subunit with canine beta-2-microglobulin) (canine); experiment: SPR pH 5.5, SASA-Fc captured on BSA, FcRn 400 nM; average of 12 wild-type runs
[8] = target: canine FcRn (FcRn large subunit with canine beta-2-microglobulin) (canine); experiment: SPR pH 5.5, SASA-Fc captured on BSA, FcRn 200 nM; remark: listed apart in the source
[9] = target: canine FcRn (FcRn large subunit with canine beta-2-microglobulin) (canine); experiment: SPR pH 6.0, SASA-Fc captured on BSA, FcRn 200 nM
[10] = target: canine FcRn (FcRn large subunit with canine beta-2-microglobulin) (canine); experiment: SPR pH 6.0, SASA-Fc captured on BSA, FcRn 100-800 nM
[11] = target: canine FcRn (FcRn large subunit with canine beta-2-microglobulin) (canine); experiment: SPR pH 5.5, SASA-Fc captured on BSA, FcRn 100-800 nM
[12] = target: canine FcRn (FcRn large subunit with canine beta-2-microglobulin) (canine); experiment: SPR pH 5.5, SASA-Fc captured on BSA, FcRn 200 nM; remark: listed apart in the source
[13] = target: canine FcRn (FcRn large subunit with canine beta-2-microglobulin) (canine); experiment: SPR pH 5.5, SASA-Fc captured on BSA, FcRn 200 nM; remark: listed apart in the source
[14] = target: canine FcRn (FcRn large subunit with canine beta-2-microglobulin) (canine); experiment: SPR pH 5.9, IgG coupled to C1 chip, steady state fit
[15] = target: canine FcRn (FcRn large subunit with canine beta-2-microglobulin) (canine); experiment: SPR pH 6.0, IgG coupled to CM5, FcRn 200-3200 nM

B1: wild-type canine IgGB Fc (CH2-CH3) with N-terminal SASA tag (Fc fusion, part only; not given: SASA tag, not shown: another chain or arm of the molecule; small tags and cut ends)
Fc: APEMLGGPSVFIFPPKPKDTLLIARTPEVTCVVVDLDPEDPEVQISWFVDGKQMQTAKTQPREEQFNGTYRVVSVLPIGHQDWLKGKQFTCKVNNKALPSPIERTISKARGQAHQPSVYVLPPSREELSKNTVSLTCLIKDFFPPDIDVEWQSNGQQEPESKYRTTPPQLDEDGSYFLYSKLSVDKSRWQRGDTFICAVMHEALHNHYTQESLSHSPGK
- Kd [1]: 1710 nM and 2660 nM
- koff [1]: 0.288 s⁻¹ and 0.326 s⁻¹
- kon [1]: 168000 M⁻¹ s⁻¹ and 123000 M⁻¹ s⁻¹
- Kd [2]: 8.99 µM and 3.11 µM
- koff [2]: 0.347 s⁻¹ and 0.354 s⁻¹
- kon [2]: 38700 M⁻¹ s⁻¹ and 114000 M⁻¹ s⁻¹
- Kd [3]: 1560 nM and 754 nM
- koff [3]: 0.179 s⁻¹ and 0.182 s⁻¹
- kon [3]: 115000 M⁻¹ s⁻¹ and 242000 M⁻¹ s⁻¹
- Kd [4]: 884 nM and 862 nM
- koff [4]: 0.21 s⁻¹ and 0.218 s⁻¹
- kon [4]: 237000 M⁻¹ s⁻¹ and 253000 M⁻¹ s⁻¹
- Kd [5]: 502 nM and 784 nM
- koff [5]: 0.169 s⁻¹ and 0.207 s⁻¹
- kon [5]: 336000 M⁻¹ s⁻¹ and 264000 M⁻¹ s⁻¹
- Kd [6]: 955 nM and 1310 nM
- koff [6]: 0.181 s⁻¹ and 0.209 s⁻¹
- kon [6]: 190000 M⁻¹ s⁻¹ and 159000 M⁻¹ s⁻¹
- Kd [7]: 566 nM
- Kd [8]: 2050 nM and 2990 nM
- koff [8]: 0.31 s⁻¹ and 0.315 s⁻¹
- kon [8]: 151000 M⁻¹ s⁻¹ and 105000 M⁻¹ s⁻¹
- Kd [9]: 939 nM and 999 nM
- koff [9]: 0.14 s⁻¹ and 0.144 s⁻¹
- kon [9]: 149000 M⁻¹ s⁻¹ and 144000 M⁻¹ s⁻¹
- Kd [10]: 1820 nM
- koff [10]: 0.417 s⁻¹
- kon [10]: 230000 M⁻¹ s⁻¹
- Kd [11]: 3.15 µM
- koff [11]: 0.527 s⁻¹
- kon [11]: 168000 M⁻¹ s⁻¹
- Kd [12]: 639 nM and 692 nM
- koff [12]: 0.17 s⁻¹ and 0.171 s⁻¹
- kon [12]: 267000 M⁻¹ s⁻¹ and 247000 M⁻¹ s⁻¹
- Kd [13]: 1010 nM and 673 nM
- koff [13]: 0.195 s⁻¹ and 0.297 s⁻¹
- kon [13]: 194000 M⁻¹ s⁻¹ and 442000 M⁻¹ s⁻¹

B2: anti-NGF canine IgGB antibody with wild-type IgGB Fc (antibody, part only; not given: Anti-NGF variable domains, not shown: another chain or arm of the molecule; small tags and cut ends)
Fc: B1 Fc
- Kd [14]: 951 nM
- Kd [15]: 3.37 µM
- koff [15]: 0.385 s⁻¹
- kon [15]: 114000 M⁻¹ s⁻¹

From patent US20240327497A1
